Data: article PMC9536601 (2022)

How the values were obtained:
Experiment in all cases: SPR
[1] = target: T1, Ad1 hexon, on wild-type human adenovirus type 1 virions (human adenovirus type 1)
T1 chain: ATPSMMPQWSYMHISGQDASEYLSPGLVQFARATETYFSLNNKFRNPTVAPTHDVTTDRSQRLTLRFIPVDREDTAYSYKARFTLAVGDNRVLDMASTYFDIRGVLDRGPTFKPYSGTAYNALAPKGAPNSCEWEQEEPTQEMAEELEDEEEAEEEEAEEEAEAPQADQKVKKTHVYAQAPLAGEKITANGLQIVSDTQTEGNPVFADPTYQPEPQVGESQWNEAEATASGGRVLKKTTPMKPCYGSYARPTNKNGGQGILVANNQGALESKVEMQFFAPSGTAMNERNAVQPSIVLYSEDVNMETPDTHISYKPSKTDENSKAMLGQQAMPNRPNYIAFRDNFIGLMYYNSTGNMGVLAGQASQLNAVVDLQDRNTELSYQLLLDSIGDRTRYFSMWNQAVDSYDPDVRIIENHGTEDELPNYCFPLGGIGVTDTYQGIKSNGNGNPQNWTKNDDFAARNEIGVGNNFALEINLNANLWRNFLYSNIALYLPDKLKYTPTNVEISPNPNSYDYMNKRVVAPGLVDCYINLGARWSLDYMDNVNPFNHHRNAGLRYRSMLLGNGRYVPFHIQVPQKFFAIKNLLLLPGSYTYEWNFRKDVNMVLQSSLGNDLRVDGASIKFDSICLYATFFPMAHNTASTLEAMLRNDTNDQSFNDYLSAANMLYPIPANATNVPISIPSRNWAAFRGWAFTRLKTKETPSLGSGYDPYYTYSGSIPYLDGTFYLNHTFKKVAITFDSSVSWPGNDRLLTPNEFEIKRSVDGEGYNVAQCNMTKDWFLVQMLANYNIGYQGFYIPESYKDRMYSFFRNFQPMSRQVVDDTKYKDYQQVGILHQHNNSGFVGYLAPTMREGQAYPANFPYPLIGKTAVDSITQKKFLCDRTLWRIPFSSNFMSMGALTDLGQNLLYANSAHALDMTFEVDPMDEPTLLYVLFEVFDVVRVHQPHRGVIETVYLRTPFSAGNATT

[2] = target: T2, Ad2 hexon, on wild-type human adenovirus type 2 virions (human adenovirus type 2, UniProt P03277 1-968)
T2 chain: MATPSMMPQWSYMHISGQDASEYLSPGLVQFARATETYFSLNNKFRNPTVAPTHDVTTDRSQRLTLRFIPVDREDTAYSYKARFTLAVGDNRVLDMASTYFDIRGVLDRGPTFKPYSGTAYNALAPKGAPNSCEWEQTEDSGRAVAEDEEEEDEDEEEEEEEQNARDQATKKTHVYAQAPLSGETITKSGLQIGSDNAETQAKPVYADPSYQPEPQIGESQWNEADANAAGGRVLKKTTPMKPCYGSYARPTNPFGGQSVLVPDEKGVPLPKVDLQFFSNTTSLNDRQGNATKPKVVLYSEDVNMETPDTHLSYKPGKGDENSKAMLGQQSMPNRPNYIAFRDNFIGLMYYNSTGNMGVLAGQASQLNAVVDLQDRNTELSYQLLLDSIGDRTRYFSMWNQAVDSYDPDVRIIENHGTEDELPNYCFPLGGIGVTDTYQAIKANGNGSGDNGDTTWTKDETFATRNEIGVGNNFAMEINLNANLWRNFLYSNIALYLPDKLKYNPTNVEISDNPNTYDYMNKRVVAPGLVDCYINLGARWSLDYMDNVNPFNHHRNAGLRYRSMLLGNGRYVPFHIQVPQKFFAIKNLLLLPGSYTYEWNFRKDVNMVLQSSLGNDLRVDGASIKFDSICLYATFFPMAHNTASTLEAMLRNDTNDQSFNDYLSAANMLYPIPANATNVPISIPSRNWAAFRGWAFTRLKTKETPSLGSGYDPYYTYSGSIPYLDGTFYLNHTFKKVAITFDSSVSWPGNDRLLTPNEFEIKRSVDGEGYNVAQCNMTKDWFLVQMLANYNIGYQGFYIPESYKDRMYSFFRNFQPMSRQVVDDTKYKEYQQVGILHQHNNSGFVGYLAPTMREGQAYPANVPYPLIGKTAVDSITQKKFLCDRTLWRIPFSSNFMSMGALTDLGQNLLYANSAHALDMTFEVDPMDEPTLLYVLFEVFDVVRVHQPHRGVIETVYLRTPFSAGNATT

[3] = target: T3, Ad5 hexon, on wild-type human adenovirus type 5 virions (human adenovirus type 5, UniProt P04133 2-952)
T3 chain: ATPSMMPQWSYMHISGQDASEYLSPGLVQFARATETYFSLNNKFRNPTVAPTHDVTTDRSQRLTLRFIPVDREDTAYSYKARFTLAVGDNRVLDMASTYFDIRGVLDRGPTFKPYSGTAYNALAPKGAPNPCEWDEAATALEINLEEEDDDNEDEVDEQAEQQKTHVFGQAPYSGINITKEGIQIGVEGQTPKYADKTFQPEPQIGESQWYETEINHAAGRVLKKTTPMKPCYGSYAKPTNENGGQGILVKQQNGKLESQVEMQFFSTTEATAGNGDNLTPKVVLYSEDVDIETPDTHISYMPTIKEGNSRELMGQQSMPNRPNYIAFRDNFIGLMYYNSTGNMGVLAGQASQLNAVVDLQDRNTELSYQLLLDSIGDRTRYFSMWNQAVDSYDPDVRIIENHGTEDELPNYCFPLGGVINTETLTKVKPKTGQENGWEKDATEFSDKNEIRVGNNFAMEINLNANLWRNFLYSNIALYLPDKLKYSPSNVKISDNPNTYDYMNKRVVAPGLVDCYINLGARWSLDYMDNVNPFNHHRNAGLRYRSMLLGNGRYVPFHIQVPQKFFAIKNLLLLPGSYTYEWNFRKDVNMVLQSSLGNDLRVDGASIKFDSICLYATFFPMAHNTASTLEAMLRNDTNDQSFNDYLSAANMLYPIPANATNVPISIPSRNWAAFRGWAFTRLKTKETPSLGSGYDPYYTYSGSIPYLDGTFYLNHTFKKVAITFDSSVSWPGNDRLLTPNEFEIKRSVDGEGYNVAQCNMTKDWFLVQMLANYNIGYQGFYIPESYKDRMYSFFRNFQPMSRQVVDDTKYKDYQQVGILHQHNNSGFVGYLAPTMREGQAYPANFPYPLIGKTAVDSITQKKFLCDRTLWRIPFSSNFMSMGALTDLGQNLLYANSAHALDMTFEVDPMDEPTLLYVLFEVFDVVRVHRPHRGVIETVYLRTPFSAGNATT

B1: mouse coagulation factor X (natural protein)
chain 1: ANSFFEEFKKGNLERECMEEICSYEEVREIFEDDEKTKEYWTKYKDGDQCESSPCQNQGACRDGIGGYTCTCSEGFEGKNCELFVRKLCRLDNGDCDQFCREEQNSVVCSCASGYFLGNDGKSCISTAPFPCGKITTGRR
chain 2: VALNTSDSELDLEDALLDEDFLSPTENPIELLNLNETQPERSSDDLVRIVGGRECKDGECPWQALLINEDNEGFCGGTILNEFYILTAAHCLHQARRFKVRVGDRNTEKEEGNEMVHEVDVVIKHNKFQRDTYDYDIAVLRLKTPITFRMNVAPACLPQKDWAESTLMTQKTGIVSGFGRTHEKGRQSNILKMLEVPYVDRNTCKLSTSFSITQNMFCAGYEAKLEDACQGDSGGPHVTRFKNTYYVTGIVSWGEGCARKGKYGIYTKVTTFLKWIDRSMKARVGPTAETPRTAGPPN
modifications: gamma-carboxylated glutamate residues in the Gla domain
Binder B1 has a Kd [1] of 0.31 nM, a Kd [2] of 0.76 nM and a Kd [3] of 0.35 nM.
